Source: US20260159575A1

Target: MTBR-tau354 (human) (UniProt P10636)
Assay: target engagement in human CSF, ex vivo; multiple dose 3000 mg Q4W, E2814 CSF concentrations 200-400 ng/mL; bound/(free+bound) proxy peptide

B1: antibody E2814 (antibody, human IgG1, kappa, V domains shown)
VH: EVQLLESGGGLVQPGGSLRLSCAASGYTFTTYWITWVRQAPGKGLEWVSDIYPGSSISNYNEKFKSRFTISVDNSKNTLYLQMNSLRAEDTAVYYCAREDGYDAWFAYWGQGTLVTVSS
VL: DIQMTQSPSSLSASVGDRVTITCRSSQSILHSNGNTYLEWYQQKPGKAPKLLISKVSNRFSGVPSRFSGSGSGTDFTLTISSLQPEDFATYYCFQGSHVPFTFGQGTKLEIKR
  target engagement (E2814-bound MTBR-tau as percent of total free plus bound): 70%
